Results: the supplement of paper PMC11246515
± gives the standard deviation of the averaged measurements.

Assay: total protein half-life in vivo (active degradation + dilution); higher = more stable protein
[1] = E. coli NCM3722 delta-clpP delta-lon delta-hslV, growth: N-lim chemostat, doubling time 6 h
[2] = E. coli NCM3722 delta-clpP, growth: N-lim chemostat, doubling time 6 h
[3] = E. coli NCM3722 delta-lon, growth: N-lim chemostat, doubling time 6 h
[4] = E. coli NCM3722 delta-smpB, growth: N-lim chemostat, doubling time 6 h
[5] = wild type E. coli NCM3722, growth: C-lim chemostat, doubling time 3 h
[6] = wild type E. coli NCM3722, growth: C-lim chemostat, doubling time 6 h
[7] = wild type E. coli NCM3722, growth: C-lim chemostat, doubling time 12 h
[8] = wild type E. coli NCM3722, growth: N-lim chemostat, doubling time 6 h
[9] = wild type E. coli NCM3722, growth: N-lim chemostat, doubling time 12 h
[10] = wild type E. coli NCM3722, growth: P-lim chemostat, doubling time 6 h
[11] = wild type E. coli NCM3722, growth: P-lim chemostat, doubling time 12 h
[12] = E. coli NCM3722 delta-hslV, growth: N-lim chemostat, doubling time 6 h

Sequence | total protein half-life in vivo [1] | total protein half-life in vivo [2] | total protein half-life in vivo [3] | total protein half-life in vivo [4] | total protein half-life in vivo [5] | total protein half-life in vivo [6] | total protein half-life in vivo [7] | total protein half-life in vivo [8] | total protein half-life in vivo [9] | total protein half-life in vivo [10] | total protein half-life in vivo [11] | total protein half-life in vivo [12]
MALLDFFLSRKKNTANIAKERLQIIVAERRRSDAEPHYLPQLRKDILEVICKYVQIDPEMVTVQLEQKDGDISILELNVTLPEAEELK [P0A734] | 5.76 ± 0.51 h | 4.57 ± 0.13 h | 3.791 ± 0.018 h | 4.06 ± 0.14 h | 2.736 ± 0.016 h | 4.59 ± 0.27 h | 6.36 ± 0.066 h | 3.626 ± 0.022 h | 6.22 ± 0.13 h | 4.14 ± 1.5 h | 8.17 ± 0.36 h | –
MALLEICCYSMECALTAQQNGADRVELCAAPKEGGLTPSLGVLKSVRQRVTIPVHPIIRPRGGDFCYSDGEFAAILEDVRTVRELGFPGLVTGVLDVDGNVDMPRMEKIMAAAGPLAVTFHRAFDMCANPLYTLNNLAELGIARVLTSGQKSDALQGLSKIMELIAHRDAPIIMAGAGVRAENLHHFLDAGVLEVHSSAGAWQASPMRYRNQGLSMSSDEHADEYSRYIVDGAAVAEMKGIIERHQAK | 5.29 ± 1.1 h | 5.31 ± 1.4 h | 4.73 ± 0.25 h | 4.47 ± 0.33 h | 3.26 ± 0.64 h | 6.29 ± 0.61 h | 9.735 ± 0.081 h | 4.35 ± 0.53 h | 6.84 ± 0.21 h | 5.85 ± 0.37 h | 11.8 ± 1.1 h | 5.99 ± 2.8 h
MALLNVDKLSVHFGDESAPFRAVDRISYSVKQGEVVGIVGESGSGKSVSSLAIMGLIDYPGRVMAEKLEFNGQDLQRISEKERRNLVGAEVAMIFQDPMTSLNPCYTVGFQIMEAIKVHQGGNKSTRRQRAIDLLNQVGIPDPASRLDVYPHQLSGGMSQRVMIAMAIACRPKLLIADEPTTALDVTIQAQIIELLLELQQKENMALVLITHDLALVAEAAHKIIVMYAGQVVETGDAHAIFHAPRHPYTQALLRALPEFAQDKERLASLPGVVPGKYDRPNGCLLNPRCPYATDRCRAEEPALNMLADGRQSKCHYPLDDAGRPTL [P0AAG0] | 6.72 ± 1.2 h | 6.26 ± 0.28 h | 7.31 ± 0.78 h | 6.33 ± 0.16 h | 3.12 ± 0.29 h | 6.95 ± 0.84 h | 12 ± 0.99 h | 5.94 ± 0.23 h | 12.6 ± 0.25 h | 6.27 ± 0.38 h | 13.3 ± 1.2 h | 6.21 ± 0.75 h
MALLPDKEKLLRNFLRCANWEEKYLYIIELGQRLPELRDEDRSPQNSIQGCQSQVWIVMRQNAQGIIELQGDSDAAIVKGLIAVVFILYDQMTPQDIVNFDVRPWFEKMALTQHLTPSRSQGLEAMIRAIRAKAAALS | 4.3 ± 0.53 h | 3.71 ± 0.31 h | 5.07 ± 1.1 h | 4.012 ± 0.015 h | 3.39 h | 4.57 ± 0.48 h | 9.46 ± 0.25 h | 3.509 ± 0.018 h | 5.75 ± 0.11 h | 4.85 ± 0.13 h | 10.1 ± 1.2 h | –
MALNTPQITPTKKITVRAIGEELPRGDYQRCPQCDMLFSLPEINSHQSAYCPRCQAKIRDGRDWSLTRLAAMAFTMLLLMPFAWGEPLLHIWLLGIRIDANVMQGIWQMTKQGDAITGSMVFFCVIGAPLILVTSIAYLWFGNRLGMNLRPVLLMLERLKEWVMLDIYLVGIGVASIKVQDYAHIQAGVGLFSFVALVILTTVTLSHLNVEELWERFYPQRPATRRDEKLRVCLGCHFTGYPDQRGRCPRCHIPLRLRRRHSLQKCWAALLASIVLLLPANLLPISIIYLNGGRQEDTILSGIMSLASSNIAVAGIVFIASILVPFTKVIVMFTLLLSIHFKCQQGLRTRILLLRMVTWIGRWSMLDLFVISLTMSLINRDQILAFTMGPAAFYFGAAVILTILAVEWLDSRLLWDAHESGNARFDD [P0AD03] | – | 3.28 h | 4.34 h | 4.47 h | – | – | – | 4.43 h | – | 3.99 h | 6.67 ± 0.85 h | –
MALPILLDCDPGHDDAIAIVLALASPELDVKAITSSAGNQTPEKTLRNVLRMLTLLNRTDIPVAGGAVKPLMRELIIADNVHGESGLDGPALPEPTFAPQNCTAVELMAKTLRESAEPVTIVSTGPQTNVALLLNSHPELHSKIARIVIMGGAMGLGNWTPAAEFNIYVDPEAAEIVFQSGIPVVMAGLDVTHKAQIHVEDTERFRAIGNPVSTIVAELLDFFLEYHKDEKWGFVGAPLHDPCTIAWLLKPELFTSVERWVGVETQGKYTQGMTVVDYYYLTGNKPNATVMVDVDRQGFVDLLADRLKFYA | 4.982 ± 0.041 h | 4.24 ± 0.14 h | 4.291 ± 0.039 h | 4.236 ± 0.027 h | 3.02 ± 0.045 h | 5.85 ± 0.58 h | 10.5 ± 0.72 h | 4.76 ± 0.19 h | 7.25 ± 0.29 h | 5.5168 ± 0.0052 h | 11.3 ± 0.33 h | 4.66 ± 1 h
MALPRITQKEMTEREQRELKTLLDRARIAHGRVLTNSETNSIKKDYIDKLMVEREAEAKKARQLKKKQAYKPDPEASFSWSANTSTRGRR | 5.58 ± 1 h | – | 1.63 h | 2.02 h | – | 1.65 h | 2.08 h | – | 2.87 ± 0.66 h | – | – | 1.79 ± 0.25 h
MALTTISPHDAQELIARGAKLIDIRDADEYLREHIPEADLAPLSVLEQSGLPAKLRHEQIIFHCQAGKRTSNNADKLAAIAAPAEIFLLEDGIDGWKKAGLPVAVNKSQPLPLMRQVQIAAGGLILIGVVLGYTVNSGFFLLSGFVGAGLLFAGISGFCGMARLLDKMPWNQRA | 4.3 ± 0.19 h | 4.2 ± 0.14 h | 4.74 ± 0.82 h | 5.91 ± 1.4 h | 2.61 ± 0.23 h | 6.01 ± 1.2 h | 8.96 ± 2.1 h | 4.58 ± 0.2 h | 8.75 ± 0.24 h | 5.266 ± 0.016 h | 10.3 ± 0.39 h | 4.71 ± 0.24 h
